Here are results for 53 variants from the MegaScale stability set (Tsuboyama et al. 2023).

B1: r11_951_TrROS_Hall (parent)
chain: KKKYVIKVYFEDTGKEVEIEAESKEEALEAAKRLAEELGLKIKKVEIYP

The data set covers variants of B1. Description: folding stability dG (cDNA display proteolysis); higher = more stable. As to conditions: PBS, room temperature.
As to KKKYVIKVYFEDTQKEVEIEAESKEEALEAAKRLAEELGLKIKKVEIYP, the “folding stability dG” value came to 4.39 kcal/mol.

As to KKKYVIKVYFEDTRKEVEIEAESKEEALEAAKRLAEELGLKIKKVEIYP, the “folding stability dG” value came out at 4.05 kcal/mol.

KKKYVIKVYFEDTGKEVEIEAESKEEALEAAKRLAEELGLKIKKSEIYP: the “folding stability dG” value stood at 3.94 kcal/mol.

With KKKYVIKVYFEDTGKEVEIEAESKEEALEAAKRLAEELGLKIKKCEIYP, the “folding stability dG” value came to 4.16 kcal/mol.

With KKKYVIKVYFEDTGKEVEIEAESKEEALEAAKRLAEHLGLKIKKVEIYP, the “folding stability dG” value was 4.72 kcal/mol.

Take KKKYVIKVYFEDTGKEVEIEAESKEEALEAAKRLAEDLGLKIKKVEIYP: the “folding stability dG” value is 4.29 kcal/mol.

Consider KKKYVIKVYFELTGKEVEIEAESKEEALEAAKRLAEELGLKIKKVEIYP, for which the “folding stability dG” value is 4.59 kcal/mol.

For KKKYVIKVYFESTGKEVEIEAESKEEALEAAKRLAEELGLKIKKVEIYP, the “folding stability dG” value is 4.38 kcal/mol.

Take KKKYVIGVYFEDTGKEVEIEAESKEEALEAAKRLAEELGLKIKKVEIYP: the “folding stability dG” value stood at 3.32 kcal/mol.

On to KKKYVFKVYFEDTGKEVEIEAESKEEALEAAKRLAEELGLKIKKVEIYP, for which the “folding stability dG” value is 4.55 kcal/mol.

Regarding KKKYVGKVYFEDTGKEVEIEAESKEEALEAAKRLAEELGLKIKKVEIYP, the “folding stability dG” value is 3.82 kcal/mol.

With KKKYVIKVYFEDTGKEVEIEAEIKEEALEAAKRLAEELGLKIKKVEIYP, the “folding stability dG” value came out at 4 kcal/mol.

As to KKKYVIKVYFEDTGQEVEIEAESKEEALEAAKRLAEELGLKIKKVEIYP, the “folding stability dG” value was determined as 4.27 kcal/mol.

Regarding KKKYVIKNYFEDTGKEVEIEAESKEEALEAAKRLAEELGLKIKKVEIYP, the “folding stability dG” value amounted to 1.36 kcal/mol.

Turning to KKKYVIKVYFEDTGKEVEIEAESKEEALEAAKRLAEELGLKIKGVEIYP, the “folding stability dG” value was 4.12 kcal/mol.

KKKYVIKVYFEDTGKEVEIEAESKEEALEAANRLAEELGLKIKKVEIYP: the “folding stability dG” value stood at 4.51 kcal/mol.

In the case of KKKYVIKVYFEDTGKEVMIEAESKEEALEAAKRLAEELGLKIKKVEIYP, the “folding stability dG” value stood at 4.35 kcal/mol.

In the case of KKKYVIKVYFEDTGKEVEIEAESKPEALEAAKRLAEELGLKIKKVEIYP, the “folding stability dG” value amounted to 4.16 kcal/mol.

On to KKKYVIKVYFEDTGKEVEIEAESKYEALEAAKRLAEELGLKIKKVEIYP, for which the “folding stability dG” value was found to be 4.33 kcal/mol.

KKKYVIKVYFEDTGKEVEIEAESKEEALEAAKRLAFELGLKIKKVEIYP: the “folding stability dG” value came out at 4.76 kcal/mol.

As for KKKEVIKVYFEDTGKEVEIEAESKEEALEAAKRLAEELGLKIKKVEIYP, the “folding stability dG” value was 2.73 kcal/mol.

KKKYVIKVYFEDTGKEVEIEAESKEEPLEAAKRLAEELGLKIKKVEIYP: the “folding stability dG” value worked out at 2.74 kcal/mol.

KKKYVIKVYFEDTGKEVEIEAESKEEILEAAKRLAEELGLKIKKVEIYP: the “folding stability dG” value amounted to 4.09 kcal/mol.

Take KKKYVIKVYFEDTGKEVEIEAESKEEALEAAKRLMEELGLKIKKVEIYP: the “folding stability dG” value was found to be 3.97 kcal/mol.

For the variant KKKYVIKVYFEDTGKEVEIEAESKEEALEAAKRLAEELGLKIKKVTIYP, the “folding stability dG” value turned out to be 4.36 kcal/mol.

Take KKKYVIKVYFQDTGKEVEIEAESKEEALEAAKRLAEELGLKIKKVEIYP: the “folding stability dG” value came to 4.79 kcal/mol.

In the case of KKKYVIKVYFPDTGKEVEIEAESKEEALEAAKRLAEELGLKIKKVEIYP, the “folding stability dG” value worked out at 3.62 kcal/mol.

For KKKYVIKVYFEDTGKEVEIEAESKEEALEFAKRLAEELGLKIKKVEIYP, the “folding stability dG” value was found to be 4.66 kcal/mol.

Turning to KKKYVIKVYFEDTGKEVEIEAESKEEALEYAKRLAEELGLKIKKVEIYP, the “folding stability dG” value is 4.89 kcal/mol.

With KKKYVIKVYFEDTGKEVEIEAISKEEALEAAKRLAEELGLKIKKVEIYP, the “folding stability dG” value worked out at 4.11 kcal/mol.

Turning to KKKYVIKVYFEDTGKEVEIEAHSKEEALEAAKRLAEELGLKIKKVEIYP, the “folding stability dG” value was 4.49 kcal/mol.

As to KKKYVIKVYFEDTGKEVEIEACSKEEALEAAKRLAEELGLKIKKVEIYP, the “folding stability dG” value was determined as 4.52 kcal/mol.

As to KKKYVIKVYFEDTGKEVEIEAESKEEALEADKRLAEELGLKIKKVEIYP, the “folding stability dG” value is 0.894 kcal/mol.

As for KKKYVIKVYFEDTGKEVEIEAESKEEALEAAKRLAEELGLKIKKVEIYY, the “folding stability dG” value turned out to be 4.78 kcal/mol.

As to KKKYVIKVYFEDTGKEVEIEAESKEEALEAAKRLAEELGLKIKKVEIYH, the “folding stability dG” value was found to be 4.93 kcal/mol.

Take KKKYVIKVYFEDTGKEVEIEAESKEEALEAAKRLAEELGLKIKKVEIYE: the “folding stability dG” value was 4.66 kcal/mol.

As for KKKYVIKVYFEDTGKEVEIEAESKEEALEAAKFLAEELGLKIKKVEIYP, the “folding stability dG” value stood at 4.38 kcal/mol.

Consider KKKYVIKVYFEDTGKEVEIEAESKEEALEAAKRLAEELGLDIKKVEIYP, for which the “folding stability dG” value came out at 4 kcal/mol.

Consider KKKYVIKVYFEDYGKEVEIEAESKEEALEAAKRLAEELGLKIKKVEIYP, for which the “folding stability dG” value stood at 4.47 kcal/mol.

On to KKKYVIKVYFEDTGKEVEIEAESKESALEAAKRLAEELGLKIKKVEIYP, for which the “folding stability dG” value came to 4.39 kcal/mol.

KKKYVIKVYFEDTGKEVEIEAESKEQALEAAKRLAEELGLKIKKVEIYP: the “folding stability dG” value came out at 4.36 kcal/mol.

As for KKKYVIKVYFEDTGKEVEIEAESKEVALEAAKRLAEELGLKIKKVEIYP, the “folding stability dG” value worked out at 4.24 kcal/mol.

Regarding KKKYVIKVYFEDTGKKVEIEAESKEEALEAAKRLAEELGLKIKKVEIYP, the “folding stability dG” value was found to be 4.23 kcal/mol.

In the case of KKKYGIKVYFEDTGKEVEIEAESKEEALEAAKRLAEELGLKIKKVEIYP, the “folding stability dG” value was found to be 3.95 kcal/mol.

Regarding KKKYWIKVYFEDTGKEVEIEAESKEEALEAAKRLAEELGLKIKKVEIYP, the “folding stability dG” value was 4.62 kcal/mol.

Turning to KKKYVIKVYFEDTGKEVEIEAESKEEALEAAKRLAEELGLKIKKVEDYP, the “folding stability dG” value was found to be 3.99 kcal/mol.

As to KKKYVIKVYFEDTGKEVEIEAESKEEALEAAKRLAEELGLKIEKVEIYP, the “folding stability dG” value is 4.35 kcal/mol.

In the case of KKKYVIKVYFEDTGKEVEIEAESKEEALEAAKRLAEELSLKIKKVEIYP, the “folding stability dG” value came out at 4.26 kcal/mol.

With KKKYVIKVYFEDTGKEVECEAESKEEALEAAKRLAEELGLKIKKVEIYP, the “folding stability dG” value turned out to be 4.1 kcal/mol.

Turning to KKKYVIKVYFEDTGKEVEIEAESKEEALEAAKRMAEELGLKIKKVEIYP, the “folding stability dG” value came to 4.55 kcal/mol.

On to KKKYVIKVYFEDTGKEVEIEAESKEEALEAAKRLAEELGLKIKKVEISP, for which the “folding stability dG” value worked out at 4.2 kcal/mol.

For the variant KKKYVIKVYFEDTGKEVEIEAESFEEALEAAKRLAEELGLKIKKVEIYP, the “folding stability dG” value stood at 4.32 kcal/mol.

Consider KKKYVIKVYFEDTGKEVEIEAESWEEALEAAKRLAEELGLKIKKVEIYP, for which the “folding stability dG” value amounted to 4.51 kcal/mol.
